Assay: soluble on expression in E. coli; label from the status in PepcDB or PDB records

Sequence	soluble on expression in E. coli
MGIRVVFERPQGGERAVLVQLALPGVDADKALAEFEELALSAKAEVLDCVLGARATPDAKYYVGKGKAEEIAHLVNMLDADLVLVNHELSPSQERNLERLFGCRVVDRSGLILDIFAQRARTFEGKLQVELAQLQHLSTRLIRGWTHLERQKGGIGLRGPGETQLETDRRLLRERIRYINKRLEKVRCSRDQNRQARRKASMPTVSLVGYTNAGKSTLFNVLTGEHTYVADQLFATLDPTMRKLELPGSSAAILADTVGFIRDLPHHLVEAFRATLEETQQADLLLHVIDISDPNWRETVFEVQKVLDELKVNNIPVIQVFNKIDLQEGWQPKIDYTEDSCKVWLSATTGAGLDLLKEAIATQLHGMILIEDIVIKPDQAKLRAQLYQLGAVLKESVDENGDWLMKIRITADQKRRLLSAAALEHHHHHH	not soluble
MIQIRPMTPEDFDRFWPTFQAVVVAQETYAYDPALTQEQACDVWLKLPLHTLIAEEDGQLLGSYYLKANAAGPGNHVCNCGYMVTDAALGRGVARLMCEHSQQLARDSGFLAMQFNSVVASNEVAVALWAKLGFETVGRLPKAYRHARLGLVDCLVMFKWLADAPIAAEPVQPKLIGRKNIESVVSRPRRK	not soluble
MGSDKIHHHHHHMKGLYIGAAGMMNYMQHIQVHSNNVANAQTPGFKFDQLTSEVISRNKVNYQNGPVARQVGTIDYGVRPAATHINLTAGSSYITNRDRDFFMQDTDPTQGSNFFITAKNGEISLSRGGQFHSDQFGFLRTADGANLLSATGEAIQVGQKTSIRSEANGDLYNAETGQYLGRLGTKFVSANQADSLVKDGEGRLHVNGINTMNLPAGQGIIQNGVIETSNVDLGVEMVQLMDNQRMVQASKNVVNMFDKVYDKEATGLIRQ	not soluble
KFRTMRQNLQEASDVLDDQIESFTKIIQNHYKLSPNDFADPTIQSQSEIYAVGRIVPDSPTYDKFLNPESLSLETSRMGGVGRRVRLDLSQVNELSFFLGQIVAFKGKNANGDYFTVNSILPLPYPNSPVSTSQELQEFQANLEGSSLKVIVTCGPYFANDNFSLELLQEFIDSINNEVKPHVLIMFGPFIDITHPLIASGKLPNFPQFKTQPKTLDELFLKLFTPILKTISPHIQTVLIPSTKDAISNHAAYPQASLIRKALQLPKRNFKCMANPSSFQINEIYFGCSNVDTFKDLKEVIKGGTTSSRYRLDRVSEHILQQRRYYPIFPGSIRTRIKPKDVSTKKETNDMESKEEKVYEHISGADLDVSYLGLTEFVGGFSPDIMIIPSELQHFARVVQNVVVINPGRFIRATGNRGSYAQITVQCPDLEDGKLTLVEGEEPVYLHNVWKRARVDLIAS	soluble
MEGVELKEEWQDEDFPIPLPEDDSIEADTLDGTDPDRQPGSLEVNGNKVRKKLMAPDISLTLDPGEDSLWSDDLDEAGEVDLEGLDTPSENSDEFEWEDDLPKPKTTEVIRKGSITEYTATEEKGDGRRWRMFRIGEQDHRVDMKAIEPYKKVISHGGYYGDGLNAIVVFAVCFMPESGQPNYRYLMDNLFKYVIGTLELLVAENYMIIYLNGATTRRKMPSLGWLRRCYQQIDRRLRKNLKSLIIVHPSWFIRTLLAVTRPFISSKFSQKIRYVFNLAELAELVPMEYVGIPECIKQVDQELNGKQEPPKSEQ	not soluble
MGSDKIHHHHHHMFEMGIQELVKTIDTNINHMISLSVLNLAQLGIKYGIFKAVASRPSYEELLSQIPVPNKPLLKKLIEHLKALGIIEETPSNLILNGFSYVLKFPKEDYMLLLSDWIPIWEEIYKMVDFALISYSHPYVLMDFDKDADFWDIRLSSSFNKTYRDAIINLGEIREDSYILDLGCGSVSPAYFGKFISEDGKYVGVDYSPGLLEIARERVERNGLPAELKEMDVSLIRTRSKYDVAIMSFLLEYVRDREEVLGKVLEALDSGGKLIIVEAFRDEFENIQAMEFFESLNRSFVGYPAKAEIKKAILREGFDVSFEDYGKSILVVRKL	not soluble
MGSSHHHHHHGGFSQSCLPNWIMHGKSCYLFSFSGNSWYGSKRHCSQLGAHLLKIDNSKEFEFIESQTSSHRINAFWIGLSRNQSEGPWFWEDGSAFFPNSFQVRNAVPQESLLHNCVWIHGSEVYNQICNTSSYSICEKEL	soluble
MRVLHVCSELFPLLKTGGLADVIGALPAAQLAEGADVRIILPAFPDLRRGIPETVLVREIDTFAGRVALRYGHYRGIGIYLIDAPALYDRAGSPYHDASLYAYSDNYLRFALLGWMACELACGLDGYWRPEVVHAHDWHAGLTCAYLAARGRPARSVFTVHNLAYQGLFSADHLSELHLPAEFFQIYGLEFYGQISYLKAGLFFADHVTTVSPTYAKEITQPAFGYGMEGLLQALARQGRLTGILNGVDSDIWDPQSDTLLPTRYDAENLQAKAINKTHLQTAMGLQLAENKPIFAVVSRLTVQKGLDLVLEALPELLALGGQLVVLGSGDATLQEAFLAAAAEHSGQVGVQIGYHEAFSHRIIAGSDVILVPSRFEPCGLTQLYGLKYGTLPLVRHTGGLADTVVDCALENLADGSASGFVFNECEAQALVKAIRRAFVLWSRPKHWRHVQRHAMRLDFGWQLAAVDYLSLYRRL	not soluble
MIYFIRKKKWLKQLEKGEAMKYAILIGDGMADYPIEKLGNRTILQAARTPAMDSIAARGRAGLAKTVPDSFPPGSDVANMSILGYDPATYYSGRAPLEAASMGVALAADDVAFRCNLITTEHGMIKDYSAGHISSDEAEILIDTLDYELSTENIRFYPGISYRHLIVAGNNLGAETECTPPHDITGEKIDKYLPRGKDGEFFSELIEASKVVLELHPVNLKRVEEGKNPANSIWVWGQGYAPKFTAFMKLYGKKGAVISAVDLLKGIGIYAGLDVIEVHGATGYLDTNYEGKVRAAIEALKTRDLVFVHVEAPDEAGHEGSIEKKLKAVEDFDSRIVAPILEYAENSDEPFTILVLPDHPTPISVKTHTRDPIPFAIYRTDKPETDNVEAFDEESVKNGSMGLVKASDLIGILIKSLEHHHHHH	soluble
MLSGTRSRSSTKARKGTPRPPALSQSVYCGRRYTGPHTTFFFEITNDEYLLLSVLIFCNPALLQLSENGKLLLTIYRNLYCSALLQHCLLNNQKSGPARFTELLGVYQAIEVHYSDLANYIVLFQLNRPKVNQIVKNCFEAVT	not soluble
MKERKFINEAVKRLLVCEYVVKETENAGFGNMVMKRTPFGTNITLYVNRPGLVIGRRGSKVQQMTDTLEKKYGIETPQIEVKDVKDPDLNPSVIAKKIALSLEKGWSYRKAGNTSLNRTIQAGAKGVLIKISGKISGERARYQKFIYGNVKYSGEPGSKGMITGFSTAKLKVGILGVTVKILNPEYKLPDVFSIENITGGEEVGTESKADQTDVEGRETGNAEES	not soluble
MSLSERTYFPPAEEGELSKVESFLAVYKDRHGTEARPQFFLSGSNEGEQIPLPKELYEILVRTVEALASGKAVTIHPNDPLVTTQQAAELLGVSRPTVVKLIEDGKLEATKVTRHRRIKLEDVLRYQERQTIEQLDFLASTTSDAPALTESEYVSVRKMLANKRKESRIG	not soluble
MAHHHHHHMGACGSKGSTSDKGLASDKDGKNAKDRKEAWERIRQAIPREKTAEAKQRRIELFKKFDKNETGKLCYDEVHSGCLEVLKLDEFTPRVRDITKRAFDKARVLGSKLENKGSEDFVEFLEFRLMLCYIYDFFELTVMFDEIDASGNMLVDEEELKRAVPKLEAWGAKVEDPAALFKEIDKNGTGSVTFDEFAAWASAVKLDADGDPDNVPERA	soluble
MGSDKIHHHHHHKTRTVFVCQQCGAQQSRWMGKCPECGAWDSLVEQIVTPARGTGGQRAATVGQNQPIRLRDVPLTDFQRLPVYAEEFARVLGGGLVPGSVVLIGGDPGVGKSTLLGQVAAHFAASVGPALYVSAEESAQQIRLRAERLGLTADDLFLLAETSLDLIIEHIRHLRPRLVIVDSIQTVYLPELTSAAGSVSQVREGALRLMQLAKETAIPIVLVGHVTKEGAIAGPRVLEHIVDVVLYLEGDRFHQFRLLRGGKNRFGSTNEVGVFEMTGDGLREVRNPSQVFLAERNTQSPGSTVTVTLEGTRPLLVEVQALTSHTGNAQPRRTTNGFDLNRLLMLTAVLSKRVGLPLFNQDLYVNIVGGLRIGEPAADLAVALAIASSYRNQRIASRSGLPW	not soluble
